According to paper PMC5261807 (2017):
Non-standard residues stand in square brackets, D forms with d. Primed or numbered codes have the meaning given here. No end group written: not given here. Me2a″ = asymmetric dimethylarginine (Rme2a); Me2s″ = symmetric dimethylarginine (Rme2s); Arg(Me2a) = CN(C)C(=N)NCCC[C@H](N)C(=O)O; Lys(Me3) = C[N+](C)(C)CCCC[C@H](N)C(=O)O; Arg(Me2s) = CN=C(NC)NCCC[C@H](N)C(=O)O; pT = C[C@@H](OP(=O)(O)O)[C@H](N)C(=O)O; Me2a = asymmetric dimethyl (on Arg); Lys(Me2) = CN(C)CCCC[C@H](N)C(=O)O; Me2s = symmetric dimethyl (on Arg); pS = N[C@@H](COP(=O)(O)O)C(=O)O; Lys(Me) = CNCCCC[C@H](N)C(=O)O; Me3 = trimethyl (on Lys)

T1: Bdf1 bromodomain 1 (GST-tagged, WT) (Saccharomyces cerevisiae (strain ATCC …, UniProt P35817))
T1 chain: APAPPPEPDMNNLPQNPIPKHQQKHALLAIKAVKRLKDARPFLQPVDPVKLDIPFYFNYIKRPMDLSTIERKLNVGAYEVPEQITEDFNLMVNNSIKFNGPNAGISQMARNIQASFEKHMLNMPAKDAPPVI

T2: Bdf1 bromodomain 2 (GST-tagged, WT) (Saccharomyces cerevisiae (strain ATCC …, UniProt P35817))
T2 chain: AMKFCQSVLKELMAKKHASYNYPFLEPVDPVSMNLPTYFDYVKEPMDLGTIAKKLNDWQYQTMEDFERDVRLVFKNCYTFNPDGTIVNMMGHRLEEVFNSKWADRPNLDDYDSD

B1: H3 16-35 (peptide)
chain: PRKQLATKAARKSAPATGG
modifications: histone peptides carry modifications given inline in the sequence and in columns 4-7 (Kac, Kme1/2/3, Rme2a/s, Cit, pS/pT); N-terminus free or acetylated
B2: H3 26-45 (peptide)
chain: RKSAPATGGVKKPHRYRPG
modifications: histone peptides carry modifications given inline in the sequence and in columns 4-7 (Kac, Kme1/2/3, Rme2a/s, Cit, pS/pT); N-terminus free or acetylated

Molecular target: T1, Bdf1 bromodomain 1 (GST-tagged, WT)
Test: histone peptide array probed with recombinant GST-bromodomain, signal normalised to myc peptide control

binding score	Binder
0.0545	ARTKQTARKSTGGKAPRKQ (A Rme2s T Kac Q T A Rme2a Kac S T G G K A P R K Q)
0.00897	A[Arg(Me2a)]TK(Ac)QTARKSTGGKAPRKQ
0	ARTKQTARKSTGGKAPRKQ (A Rme2s T Kme1 Q T A Rme2s K S T G G K A P R K Q)
0.00251	ARTKQTARKSTGGKAPRKQ (A Rme2a T Kme1 Q T A Rme2a Kme2 S T G G K A P R K Q)
0	PRKQLATKAA[Arg(Me2s)]KSAPATGG
0.0113	AR(Me2a)TK(Me)QTAR(Me2s)K(Me3)STGGKAPRKQ
0	ARTKQTARKSTGGKAPRKQ (A Rme2a T Kac Q T A Rme2s Kme1 S T G G K A P R K Q)
0	ARTKQTARKSTGGKAPRKQ (A R T K Q T A R Kac S pT G G K A P R K Q)
0.00574	ARTKQTARKSTGGKAPRKQ (A R T K Q T A R K S pT G G Kac A P R K Q)
0.0228	ARTKQTARKSTGGKAPRKQ (A R T Kme2 Q T A Rme2a Kac S T G G K A P R K Q)
0	ARTK(Me3)QTARKSTGGKAPRKQ
0	A[Arg(Me2a)]T[Lys(Me2)]QTA[Arg(Me2a)][Lys(Me3)]STGGKAPRKQ
0	ARTKQTARKSTGGKAPRKQ (A R T Kme2 Q T A Rme2s Kme1 S T G G K A P R K Q)
0.0411	ARTKQTARKSTGGKAPRKQ (A R T K Q T A R Kme2 S T G G Kac A P R K Q)
0.0188	A[Arg(Me2a)]TK(Ac)QTA[Arg(Me2s)][Lys(Me2)]STGGKAPRKQ
0.0151	SGRGK(Ac)QGGKARAK(Ac)AKSRSS
0.000538	ARTK(Ac)QTARKSTGGKAPRKQ
0.0346	A[Arg(Me2a)][pT]K(Ac)QTARKSTGGKAPRKQ
0.00161	ARTKQTARKSTGGKAPRKQ (A Rme2s T Kme3 Q T A Rme2s Kme1 S T G G K A P R K Q)
0.00699	PDPAKSAPAPKKG[pS]KKAVT
0	SGRGKGGKGLGKGGAKRHR (S G R G K G G K G L G K G G A Kac R H R)
0.00143	PRKQLATKAAR(Me2a″)K(Ac)[pS]APATGG
0	A[Arg(Me2a)]TK(Me)QTARKSTGGKAPRKQ
0	ARTKQTARKSTGGKAPRKQ (A R T Kme2 Q T A Rme2s Kme2 S T G G K A P R K Q)
0.000538	ART[Lys(Me3)]QTA[Arg(Me2a)][Lys(Me2)]STGGKAPRKQ
0	ARTKQTARKSTGGKAPRKQ (A R T Kme3 Q T A Rme2s Kme3 S T G G K A P R K Q)

binding score	Binder
0.0477	[pS]GRGKQGGK(Ac)ARAK(Ac)AKSRSS
0.0122	A[Arg(Me2a)]TK(Me3)QTARKSTGGKAPRKQ
0.00323	ARTKQTARKSTGGKAPRKQ (A Rme2s T Kme2 Q T A Rme2s Kme1 S T G G K A P R K Q)
0	ARTKQTARKSTGGKAPRKQ (A R T K Q T A R Kme3 S T G G K A P R K Q)
0.00663	[pS]GRGK(Ac)QGGK(Ac)ARAKAKSRSS
0	B1
0	ARTK(Me)QTARKSTGGKAPRKQ
0	A[Arg(Me2s)]T[Lys(Me2)]QTA[Arg(Me2s)][Lys(Me2)]STGGKAPRKQ
0	PDPAK(Ac)SAPAPKK(Ac)GSK(Ac)KAVT
0.00968	B2
0.307	SGRGKGGKGLGKGGAKRHR (S G R G Kac G G Kac G L G Kac G G A K R H R)
0.00269	ARTKQTARKSTGGKAPRKQ (A Rme2a T Kme3 Q T A Rme2s Kme2 S T G G K A P R K Q)
0.0949	[pS]GRGK(Ac)QGGK(Ac)ARAK(Ac)AKSRSS
0	AR[pT]KQTARKSTGGKAPRKQ
0.00681	ARTKQTARKSTGGKAPRKQ (A R T K Q T A R K pS pT G G K A P R K Q)
0	ARTKQTA[Arg(Me2a)]K(Me)[pS]TGGKAPRKQ
0	AR(Me2s″)TK(Me)QTARK(Me)STGGKAPRKQ
0.00126	ARTKQTA[Arg(Me2a)]K(Ac)[pS]TGGKAPRKQ
0	ARTKQTARKSTGGKAPRKQ (A R T K Q T A R Kme2 S pT G G K A P R K Q)
0	ARTKQTARKSTGGKAPRKQ (A Rme2s T Kme2 Q T A Rme2a Kme2 S T G G K A P R K Q)
0	PRKQLATKAA[Arg(Me2a)]KSAPATGG
0	ARTKQTARKSTGGKAPRKQ (A Rme2s T Kme2 Q T A Rme2s K S T G G K A P R K Q)
0.00143	PDPAK(Ac)SAPAPKKGSK(Ac)KAVT
0.00126	A[Arg(Me2s)]T[Lys(Me)]QTA[Arg(Me2a)][Lys(Me)]STGGKAPRKQ
0	ARTKQTA[Arg(Me2a)][Lys(Me)][pS][pT]GGKAPRKQ

Molecular target: T2, Bdf1 bromodomain 2 (GST-tagged, WT)
Test: as above

binding score	Binder
0.0894	ARTKQTARKSTGGKAPRKQ (A Rme2s T Kac Q T A Rme2a Kac S T G G K A P R K Q)
0.00915	A[Arg(Me2a)]TK(Ac)QTARKSTGGKAPRKQ
0.0062	ARTKQTARKSTGGKAPRKQ (A Rme2s T Kme1 Q T A Rme2s K S T G G K A P R K Q)
0.000885	ARTKQTARKSTGGKAPRKQ (A Rme2a T Kme1 Q T A Rme2a Kme2 S T G G K A P R K Q)
0	PRKQLATKAA[Arg(Me2s)]KSAPATGG
0	AR(Me2a)TK(Me)QTAR(Me2s)K(Me3)STGGKAPRKQ
0	ARTKQTARKSTGGKAPRKQ (A Rme2a T Kac Q T A Rme2s Kme1 S T G G K A P R K Q)
0	ARTKQTARKSTGGKAPRKQ (A R T K Q T A R Kac S pT G G K A P R K Q)
0.121	ARTKQTARKSTGGKAPRKQ (A R T K Q T A R K S pT G G Kac A P R K Q)
0.00915	ARTKQTARKSTGGKAPRKQ (A R T Kme2 Q T A Rme2a Kac S T G G K A P R K Q)
0.00148	ARTK(Me3)QTARKSTGGKAPRKQ
0	A[Arg(Me2a)]T[Lys(Me2)]QTA[Arg(Me2a)][Lys(Me3)]STGGKAPRKQ
0	ARTKQTARKSTGGKAPRKQ (A R T Kme2 Q T A Rme2s Kme1 S T G G K A P R K Q)
0.104	ARTKQTARKSTGGKAPRKQ (A R T K Q T A R Kme2 S T G G Kac A P R K Q)
0.00482	A[Arg(Me2a)]TK(Ac)QTA[Arg(Me2s)][Lys(Me2)]STGGKAPRKQ
0.127	SGRGK(Ac)QGGKARAK(Ac)AKSRSS
0.00679	ARTK(Ac)QTARKSTGGKAPRKQ
0.0394	A[Arg(Me2a)][pT]K(Ac)QTARKSTGGKAPRKQ
0.00187	ARTKQTARKSTGGKAPRKQ (A Rme2s T Kme3 Q T A Rme2s Kme1 S T G G K A P R K Q)
0	PDPAKSAPAPKKG[pS]KKAVT
0	SGRGKGGKGLGKGGAKRHR (S G R G K G G K G L G K G G A Kac R H R)
0	PRKQLATKAAR(Me2a″)K(Ac)[pS]APATGG
0	A[Arg(Me2a)]TK(Me)QTARKSTGGKAPRKQ
0.00325	ARTKQTARKSTGGKAPRKQ (A R T Kme2 Q T A Rme2s Kme2 S T G G K A P R K Q)
0	ART[Lys(Me3)]QTA[Arg(Me2a)][Lys(Me2)]STGGKAPRKQ
0	ARTKQTARKSTGGKAPRKQ (A R T Kme3 Q T A Rme2s Kme3 S T G G K A P R K Q)

binding score	Binder
0.186	[pS]GRGKQGGK(Ac)ARAK(Ac)AKSRSS
0.00344	A[Arg(Me2a)]TK(Me3)QTARKSTGGKAPRKQ
0.00423	ARTKQTARKSTGGKAPRKQ (A Rme2s T Kme2 Q T A Rme2s Kme1 S T G G K A P R K Q)
0.00305	ARTKQTARKSTGGKAPRKQ (A R T K Q T A R Kme3 S T G G K A P R K Q)
0.162	[pS]GRGK(Ac)QGGK(Ac)ARAKAKSRSS
0	B1
0.00305	ARTK(Me)QTARKSTGGKAPRKQ
0	A[Arg(Me2s)]T[Lys(Me2)]QTA[Arg(Me2s)][Lys(Me2)]STGGKAPRKQ
0.329	PDPAK(Ac)SAPAPKK(Ac)GSK(Ac)KAVT
0.00305	B2
0.496	SGRGKGGKGLGKGGAKRHR (S G R G Kac G G Kac G L G Kac G G A K R H R)
0	ARTKQTARKSTGGKAPRKQ (A Rme2a T Kme3 Q T A Rme2s Kme2 S T G G K A P R K Q)
0.388	[pS]GRGK(Ac)QGGK(Ac)ARAK(Ac)AKSRSS
0.0062	AR[pT]KQTARKSTGGKAPRKQ
0	ARTKQTARKSTGGKAPRKQ (A R T K Q T A R K pS pT G G K A P R K Q)
0.00521	ARTKQTA[Arg(Me2a)]K(Me)[pS]TGGKAPRKQ
0.0105	AR(Me2s″)TK(Me)QTARK(Me)STGGKAPRKQ
0.00384	ARTKQTA[Arg(Me2a)]K(Ac)[pS]TGGKAPRKQ
0	ARTKQTARKSTGGKAPRKQ (A R T K Q T A R Kme2 S pT G G K A P R K Q)
0	ARTKQTARKSTGGKAPRKQ (A Rme2s T Kme2 Q T A Rme2a Kme2 S T G G K A P R K Q)
0	PRKQLATKAA[Arg(Me2a)]KSAPATGG
0.00226	ARTKQTARKSTGGKAPRKQ (A Rme2s T Kme2 Q T A Rme2s K S T G G K A P R K Q)
0	PDPAK(Ac)SAPAPKKGSK(Ac)KAVT
0	A[Arg(Me2s)]T[Lys(Me)]QTA[Arg(Me2a)][Lys(Me)]STGGKAPRKQ
0	ARTKQTA[Arg(Me2a)][Lys(Me)][pS][pT]GGKAPRKQ
